According to patent US20230174608A1 (published 2023):
Positions count from the first letter of the chain named. *1 amine or outer side, *2 acyl side, *3 side chain or, on linkers, in order; H or OH if unused. Where no end group is shown, it is not given here. Side-chain parts run from the residue outwards. [ ]: non-standard residue; d: D form. The star is where a group is joined. C18 diacid = O=C(O)CCCCCCCCCCCCCCCCC(=O)*; γGlu = O=C(O)[C@H](CCC(=O)[*:2])N[*:1]; AEEA = NCCOCCOCC(=O)O; Aib = CC(C)(N)C(=O)O

B1: dgc007 (peptide)
peptide: HXQGTFTSDYSKYLDERAAKEFIAWLESGG
HELM: PEPTIDE1{H.[Aib].Q.G.T.F.T.S.D.Y.S.K.Y.L.D.E.R.A.A.K.E.F.I.A.W.L.E.S.G.G.[am]}|PEPTIDE2{[CCCCCCCCCCCCCCCC(=O)[*:2]].[gGlu]}$PEPTIDE1,PEPTIDE2,20:R3-2:R2$$$V2.0; N-terminus assumed
SMILES: CCCCCCCCCCCCCCCC(=O)N[C@@H](CCC(=O)NCCCC[C@H](NC(=O)[C@H](C)NC(=O)[C@H](C)NC(=O)[C@H](CCCNC(=N)N)NC(=O)[C@H](CCC(=O)O)NC(=O)[C@H](CC(=O)O)NC(=O)[C@H](CC(C)C)NC(=O)[C@H](Cc1ccc(O)cc1)NC(=O)[C@H](CCCCN)NC(=O)[C@H](CO)NC(=O)[C@H](Cc1ccc(O)cc1)NC(=O)[C@H](CC(=O)O)NC(=O)[C@H](CO)NC(=O)[C@@H](NC(=O)[C@H](Cc1ccccc1)NC(=O)[C@@H](NC(=O)CNC(=O)[C@H](CCC(N)=O)NC(=O)C(C)(C)NC(=O)[C@@H](N)Cc1c[nH]cn1)[C@@H](C)O)[C@@H](C)O)C(=O)N[C@@H](CCC(=O)O)C(=O)N[C@@H](Cc1ccccc1)C(=O)N[C@H](C(=O)N[C@@H](C)C(=O)N[C@@H](Cc1c[nH]c2ccccc12)C(=O)N[C@@H](CC(C)C)C(=O)N[C@@H](CCC(=O)O)C(=O)N[C@@H](CO)C(=O)NCC(=O)NCC(N)=O)[C@@H](C)CC)C(=O)O
B2: dgc012 (peptide)
peptide: H[dS]QGTFTSDYSKYLEERAAK([AEEA-AEEA-γGlu-C18 diacid])EFVAWLEGG-NH2
modifications: N-terminus assumed
SMILES: CC(C)C[C@H](NC(=O)[C@H](Cc1c[nH]c2ccccc12)NC(=O)[C@H](C)NC(=O)[C@@H](NC(=O)[C@H](Cc1ccccc1)NC(=O)[C@H](CCC(=O)O)NC(=O)[C@H](CCCCNC(=O)COCCOCCNC(=O)COCCOCCNC(=O)CC[C@H](NC(=O)CCCCCCCCCCCCCCCCC(=O)O)C(=O)O)NC(=O)[C@H](C)NC(=O)[C@H](C)NC(=O)[C@H](CCCNC(=N)N)NC(=O)[C@H](CCC(=O)O)NC(=O)[C@H](CCC(=O)O)NC(=O)[C@H](CC(C)C)NC(=O)[C@H](Cc1ccc(O)cc1)NC(=O)[C@H](CCCCN)NC(=O)[C@H](CO)NC(=O)[C@H](Cc1ccc(O)cc1)NC(=O)[C@H](CC(=O)O)NC(=O)[C@H](CO)NC(=O)[C@@H](NC(=O)[C@H](Cc1ccccc1)NC(=O)[C@@H](NC(=O)CNC(=O)[C@H](CCC(N)=O)NC(=O)[C@@H](CO)NC(=O)[C@@H](N)Cc1c[nH]cn1)[C@@H](C)O)[C@@H](C)O)C(C)C)C(=O)N[C@@H](CCC(=O)O)C(=O)NCC(=O)NCC(N)=O
B3: dgc004 (peptide)
peptide: B1 peptide with D15E, S28A
HELM: PEPTIDE1{H.[Aib].Q.G.T.F.T.S.D.Y.S.K.Y.L.E.E.R.A.A.K.E.F.I.A.W.L.E.A.G.G.[am]}|PEPTIDE2{[CCCCCCCCCCCCCCCC(=O)[*:2]].[gGlu]}$PEPTIDE1,PEPTIDE2,20:R3-2:R2$$$V2.0; N-terminus assumed
SMILES: CCCCCCCCCCCCCCCC(=O)N[C@@H](CCC(=O)NCCCC[C@H](NC(=O)[C@H](C)NC(=O)[C@H](C)NC(=O)[C@H](CCCNC(=N)N)NC(=O)[C@H](CCC(=O)O)NC(=O)[C@H](CCC(=O)O)NC(=O)[C@H](CC(C)C)NC(=O)[C@H](Cc1ccc(O)cc1)NC(=O)[C@H](CCCCN)NC(=O)[C@H](CO)NC(=O)[C@H](Cc1ccc(O)cc1)NC(=O)[C@H](CC(=O)O)NC(=O)[C@H](CO)NC(=O)[C@@H](NC(=O)[C@H](Cc1ccccc1)NC(=O)[C@@H](NC(=O)CNC(=O)[C@H](CCC(N)=O)NC(=O)C(C)(C)NC(=O)[C@@H](N)Cc1c[nH]cn1)[C@@H](C)O)[C@@H](C)O)C(=O)N[C@@H](CCC(=O)O)C(=O)N[C@@H](Cc1ccccc1)C(=O)N[C@H](C(=O)N[C@@H](C)C(=O)N[C@@H](Cc1c[nH]c2ccccc12)C(=O)N[C@@H](CC(C)C)C(=O)N[C@@H](CCC(=O)O)C(=O)N[C@@H](C)C(=O)NCC(=O)NCC(N)=O)[C@@H](C)CC)C(=O)O
B4: dgc005 (peptide)
peptide: B1 peptide with D15E, S28A
HELM: PEPTIDE1{H.[Aib].Q.G.T.F.T.S.D.Y.S.K.Y.L.E.E.R.A.A.K.E.F.I.A.W.L.E.A.G.G.[am]}|PEPTIDE2{[CCCCCCCCCCCCCCCC(=O)[*:2]].[gGlu].[gGlu]}$PEPTIDE1,PEPTIDE2,20:R3-3:R2$$$V2.0; N-terminus assumed
SMILES: CCCCCCCCCCCCCCCC(=O)N[C@@H](CCC(=O)N[C@@H](CCC(=O)NCCCC[C@H](NC(=O)[C@H](C)NC(=O)[C@H](C)NC(=O)[C@H](CCCNC(=N)N)NC(=O)[C@H](CCC(=O)O)NC(=O)[C@H](CCC(=O)O)NC(=O)[C@H](CC(C)C)NC(=O)[C@H](Cc1ccc(O)cc1)NC(=O)[C@H](CCCCN)NC(=O)[C@H](CO)NC(=O)[C@H](Cc1ccc(O)cc1)NC(=O)[C@H](CC(=O)O)NC(=O)[C@H](CO)NC(=O)[C@@H](NC(=O)[C@H](Cc1ccccc1)NC(=O)[C@@H](NC(=O)CNC(=O)[C@H](CCC(N)=O)NC(=O)C(C)(C)NC(=O)[C@@H](N)Cc1c[nH]cn1)[C@@H](C)O)[C@@H](C)O)C(=O)N[C@@H](CCC(=O)O)C(=O)N[C@@H](Cc1ccccc1)C(=O)N[C@H](C(=O)N[C@@H](C)C(=O)N[C@@H](Cc1c[nH]c2ccccc12)C(=O)N[C@@H](CC(C)C)C(=O)N[C@@H](CCC(=O)O)C(=O)N[C@@H](C)C(=O)NCC(=O)NCC(N)=O)[C@@H](C)CC)C(=O)O)C(=O)O
B5: dgc008 (peptide)
peptide: B1 peptide with D15E
HELM: PEPTIDE1{H.[Aib].Q.G.T.F.T.S.D.Y.S.K.Y.L.E.E.R.A.A.K.E.F.I.A.W.L.E.S.G.G.[am]}|PEPTIDE2{[CCCCCCCCCCCCCCCC(=O)[*:2]].[gGlu]}$PEPTIDE1,PEPTIDE2,20:R3-2:R2$$$V2.0; N-terminus assumed
SMILES: CCCCCCCCCCCCCCCC(=O)N[C@@H](CCC(=O)NCCCC[C@H](NC(=O)[C@H](C)NC(=O)[C@H](C)NC(=O)[C@H](CCCNC(=N)N)NC(=O)[C@H](CCC(=O)O)NC(=O)[C@H](CCC(=O)O)NC(=O)[C@H](CC(C)C)NC(=O)[C@H](Cc1ccc(O)cc1)NC(=O)[C@H](CCCCN)NC(=O)[C@H](CO)NC(=O)[C@H](Cc1ccc(O)cc1)NC(=O)[C@H](CC(=O)O)NC(=O)[C@H](CO)NC(=O)[C@@H](NC(=O)[C@H](Cc1ccccc1)NC(=O)[C@@H](NC(=O)CNC(=O)[C@H](CCC(N)=O)NC(=O)C(C)(C)NC(=O)[C@@H](N)Cc1c[nH]cn1)[C@@H](C)O)[C@@H](C)O)C(=O)N[C@@H](CCC(=O)O)C(=O)N[C@@H](Cc1ccccc1)C(=O)N[C@H](C(=O)N[C@@H](C)C(=O)N[C@@H](Cc1c[nH]c2ccccc12)C(=O)N[C@@H](CC(C)C)C(=O)N[C@@H](CCC(=O)O)C(=O)N[C@@H](CO)C(=O)NCC(=O)NCC(N)=O)[C@@H](C)CC)C(=O)O
B6: dgc010 (peptide)
peptide: B1 peptide with D15E
HELM: PEPTIDE1{H.[Aib].Q.G.T.F.T.S.D.Y.S.K.Y.L.E.E.R.A.A.K.E.F.I.A.W.L.E.S.G.G.[am]}|PEPTIDE2{[CCCCCCCCCCCCCCCC(=O)[*:2]].[gGlu].[gGlu]}$PEPTIDE1,PEPTIDE2,20:R3-3:R2$$$V2.0; N-terminus assumed
SMILES: CCCCCCCCCCCCCCCC(=O)N[C@@H](CCC(=O)N[C@@H](CCC(=O)NCCCC[C@H](NC(=O)[C@H](C)NC(=O)[C@H](C)NC(=O)[C@H](CCCNC(=N)N)NC(=O)[C@H](CCC(=O)O)NC(=O)[C@H](CCC(=O)O)NC(=O)[C@H](CC(C)C)NC(=O)[C@H](Cc1ccc(O)cc1)NC(=O)[C@H](CCCCN)NC(=O)[C@H](CO)NC(=O)[C@H](Cc1ccc(O)cc1)NC(=O)[C@H](CC(=O)O)NC(=O)[C@H](CO)NC(=O)[C@@H](NC(=O)[C@H](Cc1ccccc1)NC(=O)[C@@H](NC(=O)CNC(=O)[C@H](CCC(N)=O)NC(=O)C(C)(C)NC(=O)[C@@H](N)Cc1c[nH]cn1)[C@@H](C)O)[C@@H](C)O)C(=O)N[C@@H](CCC(=O)O)C(=O)N[C@@H](Cc1ccccc1)C(=O)N[C@H](C(=O)N[C@@H](C)C(=O)N[C@@H](Cc1c[nH]c2ccccc12)C(=O)N[C@@H](CC(C)C)C(=O)N[C@@H](CCC(=O)O)C(=O)N[C@@H](CO)C(=O)NCC(=O)NCC(N)=O)[C@@H](C)CC)C(=O)O)C(=O)O

Target: GLP-1 receptor (GLP-1R), stably expressed on HEK293 cells
Assay: cell-based or functional assay

Binder | GLP-1R (nM EC50), receptor-mediated cAMP production in HEK293 cells [nM]
B1 | 0.28
B2 | 0.044
H[Aib]QGTFTSDYSKYLEERAAKEFIAWLEAGG-NH2 (not fully specified (residue 20)) [dgc011] | 0.955
H[Aib]QGTFTSDYSKYLEERAAKEFIAWLEAGG-NH2 (not fully specified (residue 20)) [dgc006] | 0.472
B3 | 0.113
B4 | 0.484
B5 | 0.742
H[Aib]QGTFTSDYSKYLEERAAKEFIAWLESGG-NH2 (not fully specified (residue 20); printed as HAibQGTFTSDYSKYLEERAAK*EFIAWLESGG) [dgc009] | 0.092
B6 | 0.537

Target: Glucagon receptor (GCGR), stably expressed on HEK293 cells
Assay: cell-based or functional assay

Binder | GCGR (nM EC50), receptor-mediated cAMP production in HEK293 cells [nM]
B1 | 0.971
B2 | 2.17
H[Aib]QGTFTSDYSKYLEERAAKEFIAWLEAGG-NH2 (not fully specified (residue 20)) [dgc011] | 4.13
H[Aib]QGTFTSDYSKYLEERAAKEFIAWLEAGG-NH2 (not fully specified (residue 20)) [dgc006] | 6.41
B3 | 5.84
B4 | 1.16
B5 | 2.03
H[Aib]QGTFTSDYSKYLEERAAKEFIAWLESGG-NH2 (not fully specified (residue 20); printed as HAibQGTFTSDYSKYLEERAAK*EFIAWLESGG) [dgc009] | 8.22
B6 | 0.614
